Measurements taken from patent US20260248925A1.

Target: PTH receptor (PTHR1) (human) (UniProt Q03431)
Experiment: cell-based or functional assay

Sequence of UniProt Q03431 (Q03431 27-593): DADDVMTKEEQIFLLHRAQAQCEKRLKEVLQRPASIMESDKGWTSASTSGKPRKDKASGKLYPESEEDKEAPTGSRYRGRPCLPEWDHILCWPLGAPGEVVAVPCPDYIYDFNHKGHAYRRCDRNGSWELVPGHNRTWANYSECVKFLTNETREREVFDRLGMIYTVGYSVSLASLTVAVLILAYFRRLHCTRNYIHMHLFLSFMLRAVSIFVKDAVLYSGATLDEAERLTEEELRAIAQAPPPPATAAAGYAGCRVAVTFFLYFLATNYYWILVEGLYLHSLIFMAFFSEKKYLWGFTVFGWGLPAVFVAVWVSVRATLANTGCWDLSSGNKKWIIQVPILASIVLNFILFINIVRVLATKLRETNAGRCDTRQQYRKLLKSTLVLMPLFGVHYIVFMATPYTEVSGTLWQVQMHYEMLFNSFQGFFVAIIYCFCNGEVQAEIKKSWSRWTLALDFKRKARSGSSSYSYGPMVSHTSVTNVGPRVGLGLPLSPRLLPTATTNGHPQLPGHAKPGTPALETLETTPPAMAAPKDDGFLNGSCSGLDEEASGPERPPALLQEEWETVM

EC50 (cAMP, PTH1 cellular assay): 1.4 nM | Maximal response: 105%
Substance: PTH (ligand)
